Data as given in the RNAGym collection of RNA variant scans (doi:10.1073/pnas.2313332121).

B1: TPR t1 (parent)
chain: GACCAAUCUGCCCUCAGAGCUCGAGAACAUCUUCGGAUGCAGAGGAGGCAGGCUUCGGUGGCGCGAUAGCGCCAACGUCCUCAACCUCCAAUGCAUCCCACCACAUGAUGAUGCCUGAAGAGCCUUGGUUUUUUG

Variants of: B1
Test: polymerase ribozyme fitness, log enrichment relative to wild type (log ratio); higher = more active; in vitro selection for triplet polymerase activity
Summary of the method: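 A heterodimeric triplet polymerase ribozyme had each of its subunits mutagenized by PCR into a library, which was transcribed. One round of in vitro selection, done in triplicate, annealed each library with a biotinylated primer, its partner subunit and triplets, then incubated it frozen at −7 °C before gel excision of extended constructs, streptavidin-bead capture and RT-PCR. Fitness is the logarithm of genotype enrichment relative to wild-type enrichment, based on Illumina sequencing of inputs and outputs and inverse-variance-weighted replicate averages. A base-2 logarithm is used, and genotypes were kept only with ≥10 input reads and ≥1 read per output.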

Variant | polymerase ribozyme fitness (log ratio)
C40G C123U | 0.0444
C49G C85A U112G A121G C124U | -0.43
U78C G93A C101U C123U | -0.0122
A27U C49U C79G C86U | -4.94
G51U C73A U106A C124A U126A U129A U131A | -2.8
G36C G42A C89U C114A G117C | -6.44
G19U G63C U92A | -5.54
A16G U55A G60A G93U C102U U130G | -3.39
U9C G51U G61C C97A G120A U130C | -4.88
C22G G60C A95C A121U | -2.32
U14A C49U G71A | -3.73
C13U C49A | -0.597
A37C G93U A111G | -2.63
C12A C15G C53U C88U U112A G113U C123A U129C | -3.91
A16C C101A G120A | -3.59
A37U G47A G77A | -1.29
C28A C73U | -3.04
C12A A111C | -0.641
A18G A105G U112C G117C U132A | -3.97
C28U A37U G44U A90C | -3.61
G17A A18C C22U G35A C70A C79G A90G C99A C124G | -5.86

Variant | polymerase ribozyme fitness (log ratio)
A29U G42C G113U U129A | -4.15
C94G U131A | -1.9
A2C C49G | -2.18
A26U G51A U54A G69C G117C | -7.56
G39U C94G G110A | -1.31
G39U A41G G44U C56G A105C A111U | -5.8
U14G A75U C94U U109C G127C U133G | -4.46
C15U C56A C62A G110C | -6.04
A41G G57A C64U U130A | -1.6
C73A C86U U87A G117A U132A | -3.67
U9G G48U C49U C73G G120U | 0.0812
A6U G10A | 0.406
A27U C40G G57U U112A | -3
C22A U78C | -6.19
U21A A41U G60A U96A | -4.01
C4U C82U | -0.905
C56U U78C U106A G120A | 0.24
A50G U78C | 0.0914
A2G G52A C85U | -1.87
C3U A27C G58C C64A G93U C101A G113A C115G | -7.47
C85G C94U | -2.67

Variant | polymerase ribozyme fitness (log ratio)
C22A C79U U87A | -4.8
A6U C40U G57C G61U A100C G113A | -3.51
A37U U59C | -0.107
A27G A41G G71A | -2.99
C3U G60C | -0.334
G71U C82A C88A | -1.39
C53A U132A | -0.786
C40U G69A C99A C114G | -8.02
C40U G107U | -6.46
C56G G69A | -2.86
A18U C70U A84G | -6.3
C20U A26C G52A G69A C72G A118G G120C U126G | -6.5
C73U C123G | 2.14
A26U G60A U130C | -2.93
C104U A118G | 0.462
C12U G48U C49U G63C C94U G128C | -4.36
C56A G93U U112A U116G | -3.29
G17U U87A U106A G128A | -3.83
A43U G47C G113U | -3.6
A6U G48U G93A G110U | -2.34
G69U C94U G120A | 1.2

Variant | polymerase ribozyme fitness (log ratio)
C11G U96A | -0.629
C12G G122A | -0.383
U7G G110C | -3.83
C4U C20A A111U | -2.94
G48A A84C C86U U87G G117A G128U | -6.08
U9A C20G U116C | -2.71
U78G C101G | -1.76
C20U A29G G61U C115A U116C G117U | -1.83
G44C G63A C85U G110C | -7.22
C15A C123A | -1.02
U21C C49A U78G C123A | -1.05
A29U G69U U116C G117C | -1.83
A27U G63C | -3.59
A83G C86G A91C C94U U130A | -3.59
G45U U116A | -4.04
G17U C62U C73U C101A U130C | -3.73
C8U A83U C85U C123G C124G | 2.01
C11A U30C G63U C64U U81A C104G A111U A119G U132C | -6.95
C13U G19A A37G | -2.93
U9G A24G C73U | -0.355
